Consider six molecules from US20220324960A1 (KINDRED BIOSCIENCES, published 2022).

Sequences and labels used below:
T1: Canine IL31 (canine)
T1 chain: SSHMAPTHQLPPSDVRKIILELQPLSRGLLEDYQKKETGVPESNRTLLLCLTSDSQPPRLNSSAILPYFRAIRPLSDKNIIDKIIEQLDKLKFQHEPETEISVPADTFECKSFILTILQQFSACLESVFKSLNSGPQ

B1: Caninized VH-VL M14 chimeric antibody (caninized VH of M14 fused to human IgG1 heavy chain and caninized VL of M14 fused to human kappa constant light chain) (antibody, V domains shown)
VH: EVQLVESGPSLVKPGGSLRLTCSVTGDSITSGYWNWIRKFPGNKLEYMGYISYSGITDYNPSLKSRITISRDTSKNQYYLQLNSVTTEDTATYYCARYGNYGYAMDYWGQGTSVTVSS
VL: DIVMTQSPASLSVSLGQRATISCRASESVDTYGNSFMHWYQQKPGQSPKLLIYRASNLESGIPARFGGSGSGTDFTLTIDPVQADDVATYYCQQSYEDPWTFGGGTKLEIK
notes: Chimeric: VH fused to human IgG1 heavy chain, VL fused to human kappa constant light chain; also called analyte 1; caninized VH-VL M14 antibody control
B2: cmVH3 + cmVL2 chimeric antibody (antibody, human IgG1, V domains shown)
VH: EVQLVESGPSLVKPGGSLRLTCSVTGDSITSGYWKWIRKFPGNKLEYMGYISYSGITDYNPSLKSRITISRDTSKNQYYLQLNSVTTEDTATYYCARYANYGYAMDYWGQGTSVTVSS
VL: DIVMTQSPASLSVSLGQRATISCRASESVDTYGRSFMHWYQQKPGQSPKLLIYRASNLESGIPARFGGSGSGTDFTLTIDPVQADDVATYYCYQSYEDPWTFGGGTKLEIK
notes: also called analyte 5
B3: cmVH2 + cmVL2 chimeric antibody (antibody, human IgG1, V domains shown)
VH: EVQLVESGPSLVKPGGSLRLTCSVTGDSITSGYWKWIRKFPGNKLEYMGYISYSGITDYNPSLKSRITISRDTSKNQYYLQLNSVTTEDTATYYCARYPNYGYAMDYWGQGTSVTVSS
VL: DIVMTQSPASLSVSLGQRATISCRASESVDTYGRSFMHWYQQKPGQSPKLLIYRASNLESGIPARFGGSGSGTDFTLTIDPVQADDVATYYCYQSYEDPWTFGGGTKLEIK
notes: also called analyte 3
B4: cmVH2 + cmVL3 chimeric antibody (antibody, human IgG1, V domains shown)
VH: EVQLVESGPSLVKPGGSLRLTCSVTGDSITSGYWKWIRKFPGNKLEYMGYISYSGITDYNPSLKSRITISRDTSKNQYYLQLNSVTTEDTATYYCARYPNYGYAMDYWGQGTSVTVSS
VL: DIVMTQSPASLSVSLGQRATISCRASESVDTYGRSFMHWYQQKPGQSPKLLIYRASNLESGIPARFGGSGSGTDFTLTIDPVQADDVATYYCHQSYEDPWTFGGGTKLEIK
notes: also called analyte 4
B5: cmVH3 + cmVL3 chimeric antibody (antibody, human IgG1, V domains shown)
VH: EVQLVESGPSLVKPGGSLRLTCSVTGDSITSGYWKWIRKFPGNKLEYMGYISYSGITDYNPSLKSRITISRDTSKNQYYLQLNSVTTEDTATYYCARYANYGYAMDYWGQGTSVTVSS
VL: DIVMTQSPASLSVSLGQRATISCRASESVDTYGRSFMHWYQQKPGQSPKLLIYRASNLESGIPARFGGSGSGTDFTLTIDPVQADDVATYYCHQSYEDPWTFGGGTKLEIK
notes: also called analyte 6
B6: cmVH1 + cmVL1 chimeric antibody (antibody, human IgG1, V domains shown)
VH: EVQLVESGPSLVKPGGSLRLTCSVTGDSITSGYWKWIRKFPGNKLEYMGYISYSGITDYNPSLKSRITISRDTSKNQYYLQLNSVTTEDTATYYCARYGNYGYAMDYWGQGTSVTVSS
VL: DIVMTQSPASLSVSLGQRATISCRASESVDTYGRSFMHWYQQKPGQSPKLLIYRASNLESGIPARFGGSGSGTDFTLTIDPVQADDVATYYCQQSYEDPWTFGGGTKLEIK
notes: also called analyte 2

The target in the assay is T1, Canine IL31. Briefly: SPR, BIAcore 8K, Protein A sensor chip. The method, then:
Chimeric antibodies composed of different combinations of cmVH1, cmVH2, or cmVH3 fused to human IgG1 heavy chain and cmVL1, cmVL2, and cmVL3 fused to human kappa constant light chain were generated. Caninized VH of M14 (SEQ ID NO: 3) fused to human IgG1 heavy chain and caninized VL of M14 (SEQ ID NO: 4) fused to human kappa constant light chain was also generated. Affinity of canine IL31 to the different chimeric antibodies was measured using a BIAcore 8K, as described in Table 3 below: […]
In general terms: In SPR one partner is held on a chip, and binding of the other changes the refractive index at the surface.
Take B1: the Kd (as a rule, the equilibrium constant for the complex coming apart) was found to be 2.18 nM; the koff (as a rule, a measure of how fast the partners let go of each other) came out at 0.000523 s⁻¹; the kon (in general, a measure of how fast the partners come together) turned out to be 240000 M⁻¹ s⁻¹.

With B2, the Kd stood at 0.9 nM, the koff is 0.000168 s⁻¹ and the kon was determined as 187000 M⁻¹ s⁻¹.

Take B3: the Kd came out at 0.914 nM, the koff is 0.000159 s⁻¹ and the kon amounted to 174000 M⁻¹ s⁻¹.

For the molecule B4, the Kd came to 0.868 nM, the koff came to 0.000162 s⁻¹ and the kon was found to be 186000 M⁻¹ s⁻¹.

With B5, the Kd was 0.858 nM, the koff worked out at 0.000185 s⁻¹ and the kon turned out to be 216000 M⁻¹ s⁻¹.

B6: the Kd came to 0.8 nM, the koff is 0.000182 s⁻¹ and the kon stood at 228000 M⁻¹ s⁻¹.
